From the supplement of paper PMC10471632, “Protein engineering and iterative multimodule optimization for vitamin B6 production in Escherichia coli” (Nature Communications, 2023)
± gives the standard deviation of the averaged measurements.

B1: library; numbered along this chain (parent)
chain: MAELLLGVNIDHIATLRNARGTAYPDPVQAAFIAEQAGADGITVHLREDRRHITDRDVRILRQTLDTRMNLEMAVTEEMLAIAVETKPHFCCLVPEKRQEVTTEGGLDVAGQRDKMRDACKRLADAGIQVSLFIDADEEQIKAAAEVGAPFIEIHTGCYADAKTDAEQAQELARIAKAATFAASLGLKVNAGHGLTYHNVKAIAAIPEMHELNIGHAIIGRAVMTGLKDAVAEMKRLMLEARG

Variants of: B1
Assay: pyridoxine titer in culture supernatant of strain expressing the PdxJ variant; higher = more PN produced (higher in vivo pathway activity of the PdxJ variant)
Conditions: host strain: E. coli LL006; 48 h; temperature: 37 °C; FM1.4
Method in brief: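 Engineered E. coli MG1655-derived producer strains carried a plasmid-borne pdxJ variant under a constitutive promoter. They were grown in 2 mL FM1.4 glycerol medium in 24 deep-well plates (initial OD600 0.1) for 48 h at 37 °C and 800 rpm, then centrifuged at 6200×g for 5 min. Pyridoxine titer in the supernatant was quantified by reversed-phase HPLC with fluorescence detection. Cultures were run in duplicate, with a wild-type-gene strain as control.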

Row | Variant | pyridoxine titer [mg/L]
1 | A14I E104T T196C | 1.69 ± 0.75
2 | E104T I219G | 2.75 ± 3.3
3 | E100I V101L | 2.12 ± 0.11
4 | Y24I I219G | 0.95 ± 0.23
5 | V101L T103L L212I | 0.81 ± 0.014
6 | E104T G194C T196V I218L | 6.11 ± 7.1
7 | A217V | 3.92 ± 2
8 | N213I | 1.76 ± 0.13
9 | Y24I E100I | 0.81 ± 0.028
10 | A217V I219G | 0.77 ± 0.11
11 | V101L E104T L212I | 0.49 ± 0.028
12 | V101L | 1.19 ± 0.086
13 | E104T A217V | 1.12 ± 0.014
14 | T15I T196C | 1.08 ± 0.071
15 | I13V E104T T196R L212I | 4.01 ± 0.7
16 | I13V T103L L212I | 0.43 ± 0.18
17 | I13V T103L E104T T196C | 0.233 ± 0.009
18 | D11N | 1.88 ± 0.18
19 | A23Y E104T G194C I218L | 0.22 ± 0.013
20 | I10L T196C | 0.61 ± 0.028
21 | A23T I218L I219V | 5.75 ± 0.16
22 | H12M A14I T196C | 1.49 ± 0.28
23 | E104T G194C I218L | 9.71 ± 0.22
24 | A23T E104T L212I | 3.44 ± 1.2
25 | E100I V101L T196C | 0.81 ± 0.21
26 | I13V E104T L212I | 6.61 ± 2.6

Row | Variant | pyridoxine titer [mg/L]
27 | I13V T196C | 2.15 ± 0.18
28 | E100I | 0.906 ± 0.17
29 | I154L | 1.72 ± 1.6
30 | I219G | 1.3 ± 0.31
31 | D11C A23T I218L | 0.39 ± 0.17
32 | H155I I218L | 0.66 ± 0.014
33 | I10L T103L L212I | 0.43 ± 0.071
34 | D11C T196C | 0.43 ± 0.028
35 | A23T H155I L212I | 0.63 ± 0.014
36 | I13V V101L E104T T196C | 1.04 ± 0.83
37 | G194C | 0.64 ± 0.33
38 | E100M V101L T196C | 2.12 ± 0.38
39 | I13V E100I E104T T196C | 1.25 ± 0.031
40 | G21M T103L | 0.63 ± 0.33
41 | T103L L212I | 3 ± 0.58
42 | E104T L212I | 2.65 ± 0.071
43 | L212I A217V | 0.69 ± 0.042
44 | A23T I218L | 1.04 ± 0.45
45 | I13V E100I G194K L212I | 0.324 ± 0.15
46 | A23T V44I T196R L212I | 3.37 ± 1.5
47 | A23T V44I V101L L212I | 8.38 ± 1.2
48 | E104T | 0.334 ± 0.033
49 | L212I | 4.92 ± 3.9
50 | T103L L212I A217V | 0.903 ± 0.052
51 | A23T T103L L212I | 0.46 ± 0.014
52 | G21M V44I T196C | 1.94 ± 0.23

Row | Variant | pyridoxine titer [mg/L]
53 | I13V I154L T196C | 0.52 ± 0.014
54 | A19Q | 1.02 ± 0.045
55 | G21M G194C | 0.6 ± 0.014
56 | T22V A23T | 1.74 ± 0.23
57 | H155I L212I | 0.36
58 | A23T V44I E104T L212I | 4.95 ± 0.43
59 | G21M T196C | 0.68 ± 0.042
60 | E100I V101L L212I | 0.86 ± 0.3
61 | I13V L212I | 1.07 ± 0.3
62 | A23T V44I L212I I219W | 3.27 ± 0.26
63 | A19Q G21M T103L | 0.49 ± 0.028
64 | G194C L195I | 0.26
65 | I10L V101L E104T | 2.46 ± 2
66 | I13V H155I L212I | 0.81 ± 0.27
67 | I13V H155R L212I | 0.22 ± 0.042
68 | E100I L212I | 0.67 ± 0.47
69 | H12M | 1.79 ± 0.07
70 | E100I V101L T196C A217M | 2 ± 0.12
71 | A23T L212I | 1.09 ± 0.79
72 | I13V E100W E104T L212I | 0.293 ± 0.15
73 | A23T T196W L212I | 1.71 ± 0.54
74 | H12M A23T | 0.58 ± 0.014
75 | T103L | 3.2 ± 0.14
76 | A19C A23T L212I | 3.68 ± 0.73
77 | A23T E104T G194K L212I | 0.349 ± 0.013
78 | T196C L212I | 0.66 ± 0.014

Row | Variant | pyridoxine titer [mg/L]
79 | L195G L212I | 0.89 ± 0.014
80 | L195I | 0.848 ± 0.15
81 | A23T V44I T196V L212I | 1.53 ± 0.17
82 | V44I | 0.719 ± 0.33
83 | I10L V101L E104T G194Q | 7.61 ± 0.4
84 | H12M T196C | 1.02 ± 0.014
85 | G21M | 0.428 ± 0.049
86 | A23T I219G | 0.76 ± 0.16
87 | A23T | 0.981 ± 0.014
88 | E104T I218L | 0.75 ± 0.085
89 | I218V | 0.374 ± 0.063
90 | H155I | 3.05 ± 1.1
91 | I154L I219G | 1.93
92 | A23T E100I G194Q I219G | 2.67 ± 0.14
93 | V101L A217V | 0.74 ± 0.2
94 | I10L V101L E104T I218M | 0
95 | I10L V101L E104T I219W | 1.66 ± 0.26
96 | I10L V101L E104T I219M | 0.553 ± 0.14
97 | I10L V101L E104T I219C | 0.874 ± 0.68
98 | T103L T196C L212I | 0.33
99 | T15C A19Q V44I | 0.48 ± 0.057
100 | E100I T103L L212I | 0.66 ± 0.47
101 | A19Q G21M E100I | 0.47 ± 0.23
102 | I13V G21M E104T T196C | 1.98 ± 0.077
103 | A19Q G21M | 1.17 ± 0.38
104 | E104T G194C T196Y I218L | 0.557 ± 0.059

Row | Variant | pyridoxine titer [mg/L]
105 | T15I V101L T196C | 0.44
106 | G194C I218L | 1.33 ± 0.76
107 | A23T G194C T196M I219G | 6.96 ± 5.8
108 | V101L T196C L212I | 7.33 ± 0.48
109 | A23T E100I I219G | 8.72 ± 0.52
110 | A19Q E104T | 0.72 ± 0.028
111 | L195I T196C | 0.41 ± 0.014
112 | A19R A23T E100I I219G | 0.244 ± 0.041
113 | V101L T196C | 2.16 ± 0.085
114 | A23T E104T T196V L212I | 2.61 ± 0.1
115 | A23T E104T I154L | 2.31 ± 0.92
116 | A23T Y24V | 0.39 ± 0.028
117 | T22V L212I | 0.55 ± 0.13
118 | G194C T196V N213I I218L | 2.28 ± 1
119 | I13V A217V | 1.81 ± 0.057
120 | A23T G194C T196F I219G | 0.237 ± 0.011
121 | A23T G194C I219G | 0.873 ± 0.37
122 | N213I I218L | 1.1 ± 0.14
123 | I13V V44L E104T T196C | 0.824 ± 0.7
124 | A23T I154L | 1.23 ± 0.099
125 | I10L V101L E104T T196V | 6.81 ± 0.15
126 | A19Q V44I | 0.875 ± 0.47
127 | E100I E104T | 0.98 ± 0.2
128 | H155I N213I | 0.26
129 | V101L E104T A217V | 1.17 ± 0.057
130 | G194C N213I I218L | 9.12 ± 0.45

Row | Variant | pyridoxine titer [mg/L]
131 | A23T A217V | 1.12 ± 0.18
132 | T196C I218L | 0.22 ± 0.057
133 | I10L V101L T103L E104T | 1.611 ± 0.0023
134 | I13V E100I L212I | 6.04 ± 1.9
135 | E104T G194C I218L I219L | 4.45 ± 0.41
136 | I10L V101L | 1.46 ± 0.37
137 | A23T V44I T196W L212I | 2.89 ± 0.96
138 | I13V E104T G194Q T196C | 0.3065 ± 0.0012
139 | A23T V44I L212I | 6.75 ± 0.099
140 | T15I A23T | 0.3 ± 0.014
141 | T196C | 1.21 ± 0.38
142 | V44C G194C N213I I218L | 2.07 ± 0.077
143 | T15I | 0.373 ± 0.14
144 | I13V V44L E104T L212I | 0.354 ± 0.0062
145 | I13V E104T T196C | 9.62 ± 0.33
146 | I13V E104T T196C I219C | 0.274 ± 0.01
147 | I13V | 4.14 ± 0.062
148 | T22V | 1.29 ± 0.091
149 | V101L L212I | 0.72 ± 0.042
150 | I13V T15V L212I | 0.41 ± 0.13
151 | Y24I | 0.0833 ± 0.01
